In publication doi:10.1101/2021.10.20.465166:

Columns and labels:
Experiment in all cases: EMSA
C/EBPα p42 (full length) = C/EBPα p42 (full length) (UniProt P49715 1-358)
C/EBPα bZIP domain = C/EBPα bZIP domain (UniProt P49715 282-345)
C/EBPα p30 = C/EBPα p30 (UniProt P49715-3 1-239)
Sequence of C/EBPα p30 (P49715 120-358): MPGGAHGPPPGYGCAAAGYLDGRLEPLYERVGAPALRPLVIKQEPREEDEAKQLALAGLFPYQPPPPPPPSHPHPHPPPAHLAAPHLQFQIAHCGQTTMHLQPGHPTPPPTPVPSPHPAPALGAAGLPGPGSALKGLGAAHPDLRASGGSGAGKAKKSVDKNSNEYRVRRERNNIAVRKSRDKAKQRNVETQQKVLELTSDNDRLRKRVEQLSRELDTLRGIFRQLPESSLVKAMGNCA

Sequence of C/EBPα p42 (full length) (P49715 whole entry, the tested form may be a part): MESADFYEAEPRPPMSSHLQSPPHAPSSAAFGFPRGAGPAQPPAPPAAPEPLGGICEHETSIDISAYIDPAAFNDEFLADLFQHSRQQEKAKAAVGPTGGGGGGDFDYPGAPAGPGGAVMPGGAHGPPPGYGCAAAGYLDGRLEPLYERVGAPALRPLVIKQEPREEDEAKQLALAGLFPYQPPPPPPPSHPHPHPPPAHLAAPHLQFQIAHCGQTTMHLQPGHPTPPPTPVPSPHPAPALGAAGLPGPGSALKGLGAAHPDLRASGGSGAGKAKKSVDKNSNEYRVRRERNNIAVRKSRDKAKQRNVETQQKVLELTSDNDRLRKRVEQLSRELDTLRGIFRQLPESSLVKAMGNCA
Sequence of C/EBPα bZIP domain (P49715 282-345): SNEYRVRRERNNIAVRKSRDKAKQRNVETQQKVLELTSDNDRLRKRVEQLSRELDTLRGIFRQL

Row | Binder | binding result (C/EBPα p42 (full length)) | binding result (C/EBPα bZIP domain) | binding result (C/EBPα p30)
1 | CCCCCACCCAGCCAGGCCAAC (ssRNA) [PU.1 intron 4 RNA (PU.1i4)] | binds | no binding | binds
2 | GGGACCCGGUUCCCACUCACCCAGC (structured_RNA) [CTBP1 intron 2 negative RNA (CTBP1i2N)] | no binding |  | no binding
3 | UUCCCACUCACCCAGCACCC (ssRNA) [CTBP1 intron 2 RNA (CTBP1i2)] | binds | no binding | binds
